Assay results: patent US20090305339A1, “Polypeptides With Laccase Activity” (VIALACTIA BIOSCIENCES (NZ) LIMITED, priority 2006, published 2009)

Columns and labels:
Type in all cases: biochemical
[1] = Laccase activity, 3,4-dimetoxybenzyl alcohol as substrate
Description: Laccase activity was determined spectrophotometrically in a thermostated spectrophotometer (Perkin-Elmer) at 40° C. in 100 mM sodium citrate buffer, pH 4.5 (1 ml). The standard assay was performed at 530 nm, using SGZ as the oxidation substrate (ε530=64,000 M^−1cm^−1). The reaction was started by adding SGZ, from a stock solution in methanol, to a final concentration of 20 μM. […] Oxidation of phenol red (75 μM) was determined by the decrease in absorbance at 432 nm. The activity:pH and activity:temperature relationships were determined by incubating the enzyme:substrate mixtures at different pH values and constant temperature (40° C.), and at different temperatures (15-80° C.) and constant pH (4.5), respectively. Catalytic constants were derived by fitting the experimental data onto the Michaelis-Menten model. Control measurements without enzyme were carried out to correct for possible chemical oxidation of the substrates.

[2] = Oxidation of benzo[a]pyrene (HPLC); settings: 50 μM benzo[a]pyrene, HOBt, pH 4.5, overnight, room temperature
Excerpt: Procedures for cloning, expression and purification of laccase are described in the reference: Beloqui, A., et al. (2006), which is made part of the disclosure of the present application.
Benzo[a]pyrene was oxidized, however the oxidation products haven't been identified yet.

[3] = Decolorization of Poly R-478; settings: Poly R-478 0.025%, pH 4.5, room temperature, 0.2 units enzyme, 3500 min
Description: Decolorization of Poly-R 478 (0.025 w/v) in the presence or absence of HOBt (1-Hydroxybenzotriazole) (0.9 mM) was determined spectrophotometrically (520 nm) at room temperature in 100 mM sodium phosphate buffer pH 4.5.

B1: RL5: polypeptide with laccase activity from bovine rumen metagenome library, amino acid sequence of FIG. 11 (protein)
chain: MIELEKLDFAKSVEGVEAFSTTRGQVDGRNAYSGVNLCDYVGDDALRVLDARLTLAMQLGVDLDDLVMPRQTHSCRVAVIDERFRALDIDEQEAALEGVDALVTRLQGIVIGVNTADCVPIVLVDSQAGIVAVSHAGWRGTVGRIAKAVVEEMCRQGATVDRIQAAMGPSICQDCFEVGDEVVEAFKKAHFNLNDIVVRNPATGKAHIDLRAANRAVLVAAGVPAANIVESQHCSRCEHTSFFSARRLGINSGRTFTGIYRK
modifications: Description of sequence Amino acid sequence of RL5 laccase 3217 to 2414 frame 1 - 262 amino acids (see Figure 11)
- substrate of the laccase [1]: not substrates
- oxidation of benzo[a]pyrene [2]: oxidized
- Poly R-478 solution oxidized [3]: more than 70%
